Measurements published in the supplement of paper PMC10065799, “High-throughput profiling of sequence recognition by tyrosine kinases and SH2 domains using bacterial peptide display” (eLife, 2023).

Tests used:
[1] = biological target: FGFR3 (UniProt P22607); test: phosphorylation enrichment, bacterial display (enrichment ratio); higher = better substrate or ligand; peptides without Tyr show the background
[2] = biological target: Hck (UniProt P08631); test: as above
[3] = biological target: EPHB1 (UniProt P54762); test: as above
EPHB1, sequence (P54762 whole entry, looked up): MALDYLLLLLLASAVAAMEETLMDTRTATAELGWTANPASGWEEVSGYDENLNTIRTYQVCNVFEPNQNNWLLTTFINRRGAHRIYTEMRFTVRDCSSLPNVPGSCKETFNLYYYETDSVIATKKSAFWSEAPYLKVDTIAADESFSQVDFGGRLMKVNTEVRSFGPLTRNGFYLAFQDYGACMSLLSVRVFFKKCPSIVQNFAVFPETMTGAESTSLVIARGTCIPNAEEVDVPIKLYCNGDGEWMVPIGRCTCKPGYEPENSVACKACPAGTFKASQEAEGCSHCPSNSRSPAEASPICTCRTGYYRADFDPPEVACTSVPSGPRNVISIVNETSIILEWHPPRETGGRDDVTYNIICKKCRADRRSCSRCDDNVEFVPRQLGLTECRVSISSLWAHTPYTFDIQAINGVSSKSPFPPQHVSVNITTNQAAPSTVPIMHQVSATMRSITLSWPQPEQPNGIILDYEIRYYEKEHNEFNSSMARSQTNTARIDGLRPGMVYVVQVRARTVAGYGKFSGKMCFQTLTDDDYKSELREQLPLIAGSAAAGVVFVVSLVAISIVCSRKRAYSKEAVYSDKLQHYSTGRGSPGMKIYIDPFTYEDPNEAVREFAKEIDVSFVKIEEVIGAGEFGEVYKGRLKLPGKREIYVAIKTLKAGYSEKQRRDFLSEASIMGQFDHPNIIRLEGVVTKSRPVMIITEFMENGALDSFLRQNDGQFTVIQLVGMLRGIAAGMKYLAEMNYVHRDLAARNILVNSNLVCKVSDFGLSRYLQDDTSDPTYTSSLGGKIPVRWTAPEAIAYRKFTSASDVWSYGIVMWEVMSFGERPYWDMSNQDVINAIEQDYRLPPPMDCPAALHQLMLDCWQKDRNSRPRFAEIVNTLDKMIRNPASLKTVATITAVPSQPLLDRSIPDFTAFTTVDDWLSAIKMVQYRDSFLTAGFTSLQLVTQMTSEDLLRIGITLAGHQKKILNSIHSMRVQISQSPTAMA

[4] = test system: c-Abl (mouse); test: as above
[5] = biological target: EPHB2 (UniProt P29323); test: as above
EPHB2, sequence (P29323 whole entry, looked up): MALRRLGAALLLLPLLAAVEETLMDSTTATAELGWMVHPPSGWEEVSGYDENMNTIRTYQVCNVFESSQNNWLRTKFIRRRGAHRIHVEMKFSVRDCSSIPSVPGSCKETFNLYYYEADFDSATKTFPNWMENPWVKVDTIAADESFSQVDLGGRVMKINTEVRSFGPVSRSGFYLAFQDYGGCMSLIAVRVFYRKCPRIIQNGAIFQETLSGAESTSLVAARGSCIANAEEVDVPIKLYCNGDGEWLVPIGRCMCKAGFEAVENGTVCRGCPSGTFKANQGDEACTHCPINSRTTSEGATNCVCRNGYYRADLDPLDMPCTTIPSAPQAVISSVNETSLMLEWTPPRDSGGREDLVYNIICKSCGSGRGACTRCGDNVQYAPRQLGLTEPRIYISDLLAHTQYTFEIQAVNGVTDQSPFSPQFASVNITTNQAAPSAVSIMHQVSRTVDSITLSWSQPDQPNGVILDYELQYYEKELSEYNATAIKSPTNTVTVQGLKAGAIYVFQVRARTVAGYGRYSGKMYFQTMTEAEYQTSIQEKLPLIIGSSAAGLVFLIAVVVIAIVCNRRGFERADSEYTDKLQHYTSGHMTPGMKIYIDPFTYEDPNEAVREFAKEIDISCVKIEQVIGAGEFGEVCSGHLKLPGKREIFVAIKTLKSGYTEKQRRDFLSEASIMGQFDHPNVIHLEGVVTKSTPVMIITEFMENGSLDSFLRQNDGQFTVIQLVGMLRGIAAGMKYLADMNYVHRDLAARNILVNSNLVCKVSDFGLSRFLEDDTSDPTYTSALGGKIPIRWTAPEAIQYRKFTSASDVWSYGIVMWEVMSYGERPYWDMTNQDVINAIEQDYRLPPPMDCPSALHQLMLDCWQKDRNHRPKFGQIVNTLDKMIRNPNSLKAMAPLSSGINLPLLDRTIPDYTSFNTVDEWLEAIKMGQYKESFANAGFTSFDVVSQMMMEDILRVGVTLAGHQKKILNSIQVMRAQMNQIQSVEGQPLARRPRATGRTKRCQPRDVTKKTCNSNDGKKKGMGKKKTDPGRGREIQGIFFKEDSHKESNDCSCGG

[6] = test system: c-Src; test: as above
[7] = biological target: MERTK (UniProt Q12866); test: as above
[8] = test system: AncSZ; test: as above
[9] = biological target: Fes (UniProt P07332); test: as above
Fes, sequence (P07332 whole entry, looked up): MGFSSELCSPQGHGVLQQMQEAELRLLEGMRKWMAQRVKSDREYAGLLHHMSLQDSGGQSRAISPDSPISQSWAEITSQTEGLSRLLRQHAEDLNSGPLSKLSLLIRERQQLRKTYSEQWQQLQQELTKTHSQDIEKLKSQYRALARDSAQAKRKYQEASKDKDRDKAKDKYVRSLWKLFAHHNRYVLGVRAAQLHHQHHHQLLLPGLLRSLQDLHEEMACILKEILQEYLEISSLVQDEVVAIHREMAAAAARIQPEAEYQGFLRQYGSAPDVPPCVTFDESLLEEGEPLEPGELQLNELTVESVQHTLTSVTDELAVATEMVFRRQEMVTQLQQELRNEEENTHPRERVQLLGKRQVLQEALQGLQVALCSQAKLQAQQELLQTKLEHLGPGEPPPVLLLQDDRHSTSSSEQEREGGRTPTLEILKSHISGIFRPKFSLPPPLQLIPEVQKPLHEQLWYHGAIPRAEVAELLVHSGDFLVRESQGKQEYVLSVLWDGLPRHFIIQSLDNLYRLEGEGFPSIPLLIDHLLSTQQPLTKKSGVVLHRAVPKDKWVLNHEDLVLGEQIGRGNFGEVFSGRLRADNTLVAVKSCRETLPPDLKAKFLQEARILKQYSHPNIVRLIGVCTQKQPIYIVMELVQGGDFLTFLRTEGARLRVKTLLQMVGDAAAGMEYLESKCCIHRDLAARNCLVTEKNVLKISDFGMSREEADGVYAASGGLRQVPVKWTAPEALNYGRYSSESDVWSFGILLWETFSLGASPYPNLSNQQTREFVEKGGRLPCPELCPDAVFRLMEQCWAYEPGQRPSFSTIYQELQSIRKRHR

[10] = biological target: FGFR1 (UniProt P11362); test: as above
FGFR1, sequence (P11362 whole entry, looked up): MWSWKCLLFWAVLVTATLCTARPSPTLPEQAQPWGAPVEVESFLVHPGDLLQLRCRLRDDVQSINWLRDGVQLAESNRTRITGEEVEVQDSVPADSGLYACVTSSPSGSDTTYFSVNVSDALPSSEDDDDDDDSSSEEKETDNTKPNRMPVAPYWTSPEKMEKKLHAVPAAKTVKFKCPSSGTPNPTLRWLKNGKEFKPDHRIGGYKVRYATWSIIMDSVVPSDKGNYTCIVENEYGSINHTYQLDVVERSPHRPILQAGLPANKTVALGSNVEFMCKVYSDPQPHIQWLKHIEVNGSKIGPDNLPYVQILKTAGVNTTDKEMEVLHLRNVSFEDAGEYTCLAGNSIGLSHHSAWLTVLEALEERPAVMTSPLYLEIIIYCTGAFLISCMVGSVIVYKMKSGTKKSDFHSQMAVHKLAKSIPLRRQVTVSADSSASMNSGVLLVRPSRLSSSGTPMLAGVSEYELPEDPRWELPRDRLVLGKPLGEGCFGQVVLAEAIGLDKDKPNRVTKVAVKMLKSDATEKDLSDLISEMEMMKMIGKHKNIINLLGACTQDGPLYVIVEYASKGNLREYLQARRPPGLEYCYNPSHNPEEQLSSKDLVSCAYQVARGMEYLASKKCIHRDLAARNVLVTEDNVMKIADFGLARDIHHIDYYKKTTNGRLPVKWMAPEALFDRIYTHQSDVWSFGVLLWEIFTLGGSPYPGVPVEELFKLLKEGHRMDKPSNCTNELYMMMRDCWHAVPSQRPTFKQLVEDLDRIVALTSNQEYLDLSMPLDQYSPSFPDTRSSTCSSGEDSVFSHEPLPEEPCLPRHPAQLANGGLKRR

[11] = test system: Fer (mouse); test: as above
[12] = biological target: Jak2 (UniProt O60674); test: as above
[13] = biological target: Fyn (UniProt P06241); test: as above
[14] = biological target: Grb2 SH2 (UniProt P62993); test: SH2 binding enrichment of the phosphorylated peptide, bacterial display (enrichment ratio); higher = better substrate or ligand; peptides without Tyr show the background
[15] = biological target: c-Src SH2; test: as above
[16] = biological target: SHP2-C SH2; test: as above
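For SH2 binding enrichment of the phosphorylated peptide, bacterial display in this document: peptide library displayed on the E. coli surface as eCPX fusions, selected cells deep-sequenced, score is each peptide's frequency after selection divided by its frequency in the input.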
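For phosphorylation enrichment, bacterial display in this document: 11-residue human phosphosite peptides and single-mutation variants displayed on the E. coli surface, counted by deep sequencing, each peptide's frequency after selection divided by its frequency in the unselected input library; frequency after pTyr selection over input frequency; kinase dosed for 20-30% of maximal phosphorylation in three min.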

FGFR3, sequence (P22607 whole entry, looked up): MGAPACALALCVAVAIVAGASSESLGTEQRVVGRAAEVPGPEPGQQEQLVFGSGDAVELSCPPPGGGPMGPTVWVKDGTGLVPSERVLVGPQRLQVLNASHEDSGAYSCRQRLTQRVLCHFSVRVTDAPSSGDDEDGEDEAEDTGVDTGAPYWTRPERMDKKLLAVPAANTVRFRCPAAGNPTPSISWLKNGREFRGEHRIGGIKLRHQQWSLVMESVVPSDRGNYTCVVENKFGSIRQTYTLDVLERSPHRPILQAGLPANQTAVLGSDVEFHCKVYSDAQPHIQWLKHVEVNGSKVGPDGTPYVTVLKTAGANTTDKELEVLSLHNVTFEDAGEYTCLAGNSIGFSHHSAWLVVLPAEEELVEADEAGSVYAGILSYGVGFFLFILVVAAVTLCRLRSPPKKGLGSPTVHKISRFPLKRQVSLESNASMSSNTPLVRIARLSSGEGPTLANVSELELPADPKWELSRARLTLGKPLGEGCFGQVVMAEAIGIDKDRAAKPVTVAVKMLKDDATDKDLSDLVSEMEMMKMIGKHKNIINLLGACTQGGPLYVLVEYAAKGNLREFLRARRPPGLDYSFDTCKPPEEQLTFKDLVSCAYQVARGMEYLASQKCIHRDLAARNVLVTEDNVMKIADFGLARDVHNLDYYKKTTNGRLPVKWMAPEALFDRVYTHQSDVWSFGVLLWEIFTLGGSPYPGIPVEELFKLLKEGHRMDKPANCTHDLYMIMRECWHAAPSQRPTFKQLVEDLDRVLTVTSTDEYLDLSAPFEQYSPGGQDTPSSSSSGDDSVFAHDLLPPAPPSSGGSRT
Hck, sequence (P08631 whole entry, looked up): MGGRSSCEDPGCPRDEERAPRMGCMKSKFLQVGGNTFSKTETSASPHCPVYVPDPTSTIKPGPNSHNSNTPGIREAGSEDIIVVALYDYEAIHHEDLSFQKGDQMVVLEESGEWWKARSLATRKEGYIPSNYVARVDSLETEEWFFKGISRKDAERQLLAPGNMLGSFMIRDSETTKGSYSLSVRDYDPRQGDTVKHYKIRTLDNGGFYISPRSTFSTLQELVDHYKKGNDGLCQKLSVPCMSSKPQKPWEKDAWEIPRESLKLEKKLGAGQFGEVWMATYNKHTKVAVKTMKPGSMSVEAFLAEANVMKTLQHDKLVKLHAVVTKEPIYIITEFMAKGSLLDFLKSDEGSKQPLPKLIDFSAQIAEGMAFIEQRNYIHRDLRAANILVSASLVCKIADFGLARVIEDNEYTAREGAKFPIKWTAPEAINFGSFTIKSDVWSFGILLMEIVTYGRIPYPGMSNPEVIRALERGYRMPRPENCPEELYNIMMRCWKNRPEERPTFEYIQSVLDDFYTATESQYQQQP

SH2 binding enrichment [14]	SH2 binding enrichment [15]	SH2 binding enrichment [16]	Sequence	phosphorylation enrichment [1]	phosphorylation enrichment [2]	phosphorylation enrichment [3]	phosphorylation enrichment [4]	phosphorylation enrichment [5]	phosphorylation enrichment [6]	phosphorylation enrichment [7]	phosphorylation enrichment [8]	phosphorylation enrichment [9]	phosphorylation enrichment [10]	phosphorylation enrichment [11]	phosphorylation enrichment [12]	phosphorylation enrichment [13]
0.806	0.68	0.626	LQLLGYRPVFS [CHST6_Y358_YF]	0.707	0.697	0.598	0.865	0.793	0.487	0.502	1.17	1.42	0.535	0.57	1.15	0.451
0.886	0.486	0.448	LQTFRYHGLSM [PDHA1_Y289_H292L_YF]	1.38	0.578	1.05	0.589	0.822	0.356	0.747	1.26	1.21	0.835	1.27	0.732	1.07
1.19	0.697	1.19	LSAPWYLNRIS [HEXA_Y421]	0.533	0.46	0.562	0.447	0.511	0.362	0.331	0.791	0.797	0.429	0.359	0.699	0.371
1.06	0.582	1.01	LSNPAYRLLLA [DDR1_Y513]	1.19	1.14	0.945	0.917	1.1	1.21	0.568	1.27	1.15	1.17	0.981	1.99	0.954
0.764	0.422	0.67	LSQQVYRVNLS [FAT4_Y480_F475L]	0.631	0.521	0.532	0.637	0.622	0.836	0.792	0.821	0.751	0.428	0.572	0.647	0.616
1.04	0.407	0.82	LTDLRYKVSGP	1.13	0.594	0.518	0.684	0.957	0.255	0.464	0.644	1.11	0.43	0.588	0.687	0.537
0.574	0.736	0.602	LTECGYSFTTT [ACTB_Y198_R196C]	0.754	0.555	0.592	0.708	0.781	0.671	0.417	1.09	1.15	0.674	0.733	0.889	0.582
1.01	0.749	0.992	LTSKPYAFTAW [NDUFS1_Y236_R241W]	0.511	0.353	0.421	0.503	0.544	0.4	1.12	0.575	0.717	0.413	0.448	0.682	0.371
1.66	1.15	1.28	LVIIKYLPEWT [PSEN1_Y240_F237I]	2.62	1.21	2.33	1.5	2.39	0.818	1.03	3.39	2.86	1.38	0.911	2.79	1.75
0.743	7.31	3.31	MACDRYVAICS [OR8D4_Y123]	0.503	0.45	0.508	0.55	0.592	0.586	0.576	0.709	0.841	0.623	0.475	0.755	0.529
1.15	1.19	0.9	MALDIYRASYY [ALK_Y1278_R1275L]	0.713	1.57	0.594	2.99	0.564	1.76	0.674	0.874	0.911	0.655	0.434	0.86	0.974
0.755	0.547	1.09	MANYVYKAGPS [MAML2_Y515_M514V]	0.508	0.419	0.476	0.815	0.455	0.457	0.473	0.448	0.643	0.434	0.343	0.452	0.451
0.905	0.66	0.854	MCDSHYLESRF [CLK1_Y56_S61F]	0.603	0.522	0.447	0.608	0.568	0.443	0.504	0.78	0.867	0.509	0.44	0.793	0.472
0.702	0.574	0.655	MDNQEYKDAYT [BRDT_Y331_K336T]	0.783	0.673	0.598	0.792	0.796	0.546	0.586	1.33	1.33	0.667	0.638	1.11	0.589
1	0.453	0.729	MEFAKYGSLRG [RET_Y809_V804M_YF]	0.448	0.49	0.427	0.454	0.629	0.484	0.417	0.604	0.628	0.514	0.348	0.495	0.456
0.926	0.444	0.591	MGGSLYFSFPD [HIKESHI_Y55_V54L_YF]	5.74	4.95	7.73	1.61	5.46	5.75	9.75	2.27	1.8	5.92	0.871	3.96	5.08
4.77	1.22	1.19	MGRVNYGAYIN [GLB1_Y485]	0.499	0.395	0.504	0.587	0.486	0.393	0.315	0.701	0.617	0.383	0.34	0.54	0.463
0.758	0.352	0.551	MKGDFYRSLAE [YWHAG_Y131_Y133S_YF]	0.52	0.49	0.334	0.585	0.437	0.441	0.37	0.697	0.73	0.422	0.467	0.811	0.404
0.879	0.567	0.76	MKKMHYVDPDR [ST3GAL5_Y99_H104R]	0.521	0.349	0.321	0.436	0.388	0.322	0.294	0.407	0.495	0.331	0.346	0.534	0.395
0.707	0.407	0.547	MLEVPYVDHNS [F10_Y384_R387H]	0.786	0.618	0.594	0.817	0.51	0.506	0.424	1.2	1.42	0.516	0.583	1.24	0.416
1.01	0.489	0.75	MPLTEYLKRIK [CNGB3_Y200]	0.462	0.365	0.266	0.525	0.365	0.325	0.379	0.621	0.616	0.381	0.345	0.613	0.34
0.808	0.601	0.767	MPQNEYIELHR [NSA2_Y6]	1.03	0.743	0.696	0.497	0.673	0.66	0.338	0.9	0.767	1.95	0.325	0.7	0.444
0.785	0.408	0.871	MQMEEYRGRVE [BTNL2_Y91_W94R]	0.539	0.459	0.421	0.458	0.39	0.437	0.383	0.755	0.874	0.411	0.424	0.573	0.379
0.674	0.463	0.605	MRALIYNSSTV [PLEKHA7_Y243_A248V]	0.57	0.754	0.447	0.872	0.657	0.77	0.405	0.669	0.824	0.447	0.51	0.726	0.714
0.796	0.746	0.614	MSRNLYSGDCY [DDR2_Y736_Y740C]	1.15	2.27	2.11	0.581	2.35	1.49	4.75	0.985	0.993	0.951	0.811	0.69	1.96
0.811	0.449	0.759	MSSHHCDFKKF [ZNF445_Y428_Y428C_YF]	0.417	0.452	0.401	0.529	0.393	0.415	0.474	0.47	0.487	0.437	0.43	0.519	0.392
0.962	0.553	0.665	MSSHHCDYKKY [ZNF445_Y428_Y428C]	0.437	0.372	0.366	0.517	0.385	0.452	0.432	0.633	0.661	0.965	0.388	0.475	0.472
0.905	0.509	0.861	MSSLFYANTLF [HOXB7_Y6_YF]	0.735	0.905	1.14	0.693	0.834	0.883	3.91	0.906	1.19	0.656	3.42	0.859	0.905

Sequence	SH2 binding enrichment [14]	SH2 binding enrichment [15]	SH2 binding enrichment [16]	phosphorylation enrichment [1]	phosphorylation enrichment [2]	phosphorylation enrichment [3]	phosphorylation enrichment [4]	phosphorylation enrichment [5]	phosphorylation enrichment [6]	phosphorylation enrichment [7]	phosphorylation enrichment [8]	phosphorylation enrichment [9]	phosphorylation enrichment [10]	phosphorylation enrichment [11]	phosphorylation enrichment [12]	phosphorylation enrichment [13]
MTRDIYETDYY [INSR_Y1185]	0.716	0.744	0.6	1.93	1.39	1.39	0.712	1.34	2.42	0.746	2.66	1.13	1.89	0.831	1.02	1.63
